Test results published in article PMC10863982 (2024).

Molecular target: T1, GST-CTU2 (Arabidopsis thaliana (Mouse-ear cress), UniProt O65628)
T1 chain: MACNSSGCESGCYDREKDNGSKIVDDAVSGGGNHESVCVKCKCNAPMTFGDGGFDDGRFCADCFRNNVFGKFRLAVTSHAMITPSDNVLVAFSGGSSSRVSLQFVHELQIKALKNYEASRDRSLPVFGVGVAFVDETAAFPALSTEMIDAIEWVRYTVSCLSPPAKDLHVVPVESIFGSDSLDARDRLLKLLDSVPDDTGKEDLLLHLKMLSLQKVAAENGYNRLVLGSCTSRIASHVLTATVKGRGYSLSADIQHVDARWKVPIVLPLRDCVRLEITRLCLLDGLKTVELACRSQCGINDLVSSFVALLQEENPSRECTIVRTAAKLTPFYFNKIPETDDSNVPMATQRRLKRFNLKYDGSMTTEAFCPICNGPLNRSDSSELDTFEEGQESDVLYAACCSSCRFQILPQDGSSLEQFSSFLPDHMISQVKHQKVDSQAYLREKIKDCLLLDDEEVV
Assay: GST pull-down

binding result: binds
B1: ROL5-His (protein)
chain: MEAKNKKAVASRLCCLCNLRRPVLKRPKTLQQICRECFYEVFEEEIHQVIVQNRLFKSGERVAIGASGGKDSTVLAYVLSELNRRHNYGLDLFLLSIDEGITGYRDDSLETVKRNEVQYGLPLKIVSYKDLYGWTMDEIVKMIGLKNNCTFCGVFRRQALDRGAALLKVEKLVTGHNADDIAETVLLNILRGDIARLSRCTSITTGEDGPIPRCKPFKYTYEKEIVMYAYFKKLDYFSTECIYSPNAYRGFAREFIKDLERIRPRAILDIIKSGEDFRIATTTKMPEQGTCERCGYISSQKWCKACVLLEGLNRGLPKMGIGRPRGVNGDHNKETKKPGSVAKSIESKQCGSLDF
